{"source": "paper PMC10631023", "origin": "cited, not measured here", "key": {"PSGL-1 (Homo sapiens)": {"biological_target": "PSGL-1 (Homo sapiens) (UniProt Q14242)", "sequence (Q14242 42-320)": "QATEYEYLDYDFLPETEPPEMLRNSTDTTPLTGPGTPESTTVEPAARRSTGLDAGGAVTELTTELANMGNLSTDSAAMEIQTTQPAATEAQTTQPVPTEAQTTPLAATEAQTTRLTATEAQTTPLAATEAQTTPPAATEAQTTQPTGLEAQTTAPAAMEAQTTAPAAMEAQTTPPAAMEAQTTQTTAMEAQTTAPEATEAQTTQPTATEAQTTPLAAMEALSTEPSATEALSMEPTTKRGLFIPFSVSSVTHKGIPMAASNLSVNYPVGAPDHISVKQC"}, "VSIG-3 (Homo sapiens)": {"biological_target": "VSIG-3 (Homo sapiens) (UniProt Q5DX21)", "sequence (Q5DX21 23-241)": "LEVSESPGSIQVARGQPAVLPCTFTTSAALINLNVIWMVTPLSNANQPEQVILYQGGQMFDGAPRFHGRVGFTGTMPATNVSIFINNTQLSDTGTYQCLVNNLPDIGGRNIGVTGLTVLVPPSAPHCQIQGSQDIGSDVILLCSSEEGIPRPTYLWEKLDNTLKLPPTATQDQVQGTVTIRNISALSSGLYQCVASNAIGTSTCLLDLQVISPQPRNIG"}}, "note": "Values joined by “and” are separate entries in the source; they are usually repeats but may differ in a detail not shown here. Identical values can stand only once.", "data": [{"substance": "VISTA (from UniProt Q9H7M9)", "values": [{"measurement": "Kd", "setting": "PSGL-1 (Homo sapiens)", "result": 0.004, "unit": "µM"}, {"measurement": "Kd", "setting": "VSIG-3 (Homo sapiens)", "result": "0.02 µM and 0.08 µM"}]}]}
